Measured values: PMC5684140

Target: JMJD8-FLAG-HA (HeLa-JMJD8-FLAG-HA) (human) (UniProt Q96S16)
Experiment: SEC; gel filtration (Superdex 200) of total cell lysate of HeLa S3 cells stably expressing JMJD8-FLAG-HA; fractions immunoblotted with anti-FLAG

stoichiometry N: 2
Substance: JMJD8-FLAG-HA (HeLa-JMJD8-FLAG-HA) (from UniProt Q96S16-1 24-264) (natural protein)
